# Reference: US20050191342A1
# Molecular target: CD20 on Daudi target cells (human) (UniProt P11836)
# Experiment: cell-based or functional assay
# Sequence of UniProt P11836 (P11836 whole entry): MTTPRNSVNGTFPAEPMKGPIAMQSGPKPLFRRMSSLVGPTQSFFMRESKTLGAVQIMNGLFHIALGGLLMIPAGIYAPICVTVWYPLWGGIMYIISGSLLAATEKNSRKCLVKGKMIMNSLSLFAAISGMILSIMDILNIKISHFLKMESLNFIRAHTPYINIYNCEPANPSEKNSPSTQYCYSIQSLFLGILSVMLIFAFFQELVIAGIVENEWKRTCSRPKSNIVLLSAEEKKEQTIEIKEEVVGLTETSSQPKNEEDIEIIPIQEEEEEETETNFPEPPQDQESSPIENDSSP
substance,measurement,value
Rituxan™ (antibody),"ADCC, Cr release from Daudi target cells",10 to 15%
